Reference: patent publication US20060210567A1 (AstraZeneca / MedImmune, published 2006)

Key:
[1] = biological target: T1, human PD-1 fusion protein (human, UniProt Q15116 25-170); test: IgG titrated; inhibition of biotinylated human PD-L1 fusion binding to plate-bound human PD-1 fusion
T1 construct: also called Soluble PD-1 fusion protein; human PD-1/IgG chimera; not shown: fusion partner (IgG part of the chimera)

[2] = biological target: T1, human PD-1 fusion protein; test: purified scFv titrated; inhibition of biotinylated human PD-L1 fusion binding to plate-bound human PD-1 fusion
Experimental: ScFv production was induced by addition of 1 mM IPTG to exponentially growing cultures and incubation overnight at 30° C. Crude scFv-containing periplasmic extracts were obtained by subjecting the bacterial pellets from the overnight induction to osmotic shock. Pellets were resuspended in 20% (w/v) sucrose, 50 mM Tris-HCl, pH 7.5, 1 mM EDTA and cooled on ice for 30 minutes. Cellular debris was removed by centrifugation, and the scFv was purified by chromatography and buffer-exchanged into PBS. Purified scFv's (PD1-17, PD1-28, PD1-33, and PD1-35) were tested for the ability to inhibit the binding of biotinylated human PD-L1 fusion protein to human PD-1 fusion protein immobilized on plastic in a 96 well microtiter plate assay. Binding of biotinylated PD-L1 fusion protein was detected with AMDEX-alkaline phosphatase, and the signal generated was measured by reading the absorbance at 405 nm using a microtiter plate reader. Data was expressed as a percentage of the total binding and a titration of scFv concentrations was tested to establish clone potency as calculated IC₅₀ values.

T1 sequence (Q15116 other isoform, or with tags, fused parts or gaps): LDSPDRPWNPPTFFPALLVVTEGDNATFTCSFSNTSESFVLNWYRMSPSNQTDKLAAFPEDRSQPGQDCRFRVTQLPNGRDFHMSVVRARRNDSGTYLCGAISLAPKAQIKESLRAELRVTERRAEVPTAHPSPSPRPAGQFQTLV

Binder | IC50 [1] [nM] | IC50 [2] [nM]
PD1-17 scFv (scFv, V domains shown, not shown: scFv linker and domain order) VH: QVQLQESGPGVVKPSGTLSLTCAISGGSIGSGGSIRSTRWWSWVRQSPGKGLEWIGEIYHSGSTNYNPSLKSRVTISLDKSRNHFSLRLNSVTAADTAVYYCARQDYGDSGDWYFDLWGKGTMVTVSS VL: NFMLTQPHSVSESPGKTVTISCTRSSGSIASNSVQWYQQRPGSSPTTVIYEDNQRPSGVPDRFSGSIDSSSNSASLTVSGLKTEDEADYYCQSSDSSAVVFGSGTKLTVL | – | 726
PD1-17 IgG (antibody, V domains shown, also called anti-PD-1 antibody PD1-17) VH: QVQLQESGPGVVKPSGTLSLTCAISGGSIGSGGSIRSTRWWSWVRQSPGKGLEWIGEIYHSGSTNYNPSLKSRVTISLDKSRNHFSLRLNSVTAADTAVYYCARQDYGDSGDWYFDLWGKGTMVTVSS VL: NFMLTQPHSVSESPGKTVTISCTRSSGSIASNSVQWYQQRPGSSPTTVIYEDNQRPSGVPDRFSGSIDSSSNSASLTVSGLKTEDEADYYCQSSDSSAVVFGSGTKLTVL | 2.5 | –
PD1-28 IgG (antibody, V domains shown) VH: EVQLVQSGAEVKKPGASVKVSCKASGYRFTSYGISWVRQAPGQGLEWMGWISAYNGNTNYAQKLQGRVTMTTDTSTNTAYMELRSLRSDDTAVYYCARDADYSSGSGYWGQGTLVTVSS VL: SYELTQPPSVSVSPGQTARITCSGDALPKQYAYWYQQKPGQAPVMVIYKDTERPSGIPERFSGSSSGTKVTLTISGVQAEDEADYYCQSADNSITYRVFGGGTKVTVL | 1.4 | –

Other lines, results leading:

IC50 [1] [nM] | IC50 [2] [nM] | Binder
2.3 | – | PD1-35 IgG (antibody, V domains shown, also called PD-35) VH: QVQLQESGPGLVKPSQTLSLTCTVSGGSISSGAYYWSWIRQHPGKGLEWIGYIYYNGNTYYNPSLRSLVTISVDASKNQFSLKLSSVTAADTAVYYCARASDYVWGGYRYMDAFDIWGRGTLITVSS VL: not shown
– | 560 | PD1-28 scFv (scFv, V domains shown, not shown: scFv linker and domain order) VH: EVQLVQSGAEVKKPGASVKVSCKASGYRFTSYGISWVRQAPGQGLEWMGWISAYNGNTNYAQKLQGRVTMTTDTSTNTAYMELRSLRSDDTAVYYCARDADYSSGSGYWGQGTLVTVSS VL: SYELTQPPSVSVSPGQTARITCSGDALPKQYAYWYQQKPGQAPVMVIYKDTERPSGIPERFSGSSSGTKVTLTISGVQAEDEADYYCQSADNSITYRVFGGGTKVTVL
1.8 | – | PD1-33 IgG (antibody, V domains shown) VH: QVQLVQSGAEVKKPGASVRVSCKASGYTLTSYYIHWVRQAPGQGLEWMGIINPRGATISYAQKFQGRVTMTRDTSTSTVYMELRNLKSEDTALYYCATAGIYGFDFDYWGRGTLVTVSS VL: QSALTQPASVSGSPGQSITISCTGTSNDVGGYNYVSWYQHHPGKAPKLIIYDVTNRPSGVSDRFSGSKSGNTASLTISGLLAEDEGDYYCSSYTIVTNFEVLFGGGTKLTV
